Where two headings read alike, the source gives them in different places.
B1: ecotin M84R/M85R: Engineered version of ecotin, macromolecular inhibitor of chymotrypsin-fold serine proteases (protein)
chain: AESVQPLEKIAPYPQAEKGMKRQVIQLTPQEDESTLKVELLIGQTLEVDCNLHRLGGKLENKTLEGWGYDYYVFDKVSSPVSTRRACPDGKKEKKFVTAYLGDAGMLRYNSKLPIVVYTPDNVDVKYRVWKAEEKIDNAVVR

Tests used:
[1] = biological target: T1, His-tagged MT-SP1 serine protease domain (Homo sapiens, UniProt Q9Y5Y6); experiment: Inhibition of MT-SP1 protease domain with ecotin and ecotin M84R/M85R; assay type: biochemical
T1 construct: made in house; host or cells: E. coli X-90 (pQE30 vector)
Method: Ecotin and ecotin M84R/M85R were purified from E. coli as described in copending application Ser. Nos. 09/290,513 and 09/289,830, both filed on Apr. 12, 1999. Various concentrations of ecotin or ecotin M84R/M85R were incubated with the His-tagged serine protease domain in a total volume of 990 μL of buffer containing 50 mM NaCl, 50 mM Tris-HCl (pH 8.8), 0.01% Tween 20. 10 μL of Spectrozyme tPA was added, yielding a solution containing 100 μM substrate. The final enzyme concentration was 63 pM, and the ecotin and ecotin M84R/M85R concentration ranged from 0.1 nM to 50 nM. The data were fit to the equation derived for kinetics of reversible tight-binding inhibitors (Morrison (1969) Biochim. Biophys. Acta 185: 269–286, Williams and Morrison (1979) Methods. Enzymol. 63: 437–467), and the values for apparent Ki were determined.

explanted rat VP = experiment: Rodent ventral prostate (VP) explant culture; assay type: cell-based; settings: for ductal branching morphogenesis and differentiation of rat ventral prostate: explant culture, testosterone-induced
From the text: One useful model system for studying many issues that are pertinent to prostate cancer is the development of the rodent ventral prostate (VP) in explant cultures. Macromolecular inhibitors of serine proteases of the chymotrypsin fold, ecotin and ecotin M84R/M85R (see copending application Ser. Nos. 09/290,513 and 09/289,830, both filed on Apr. 12, 1999), inhibit ductal branching morphogenesis and differentiation of the explanted rat VP. […] Thus unidentified serine proteases may play a role in growth and prevention of apoptosis in prostate epithelial cells in this system.

PC-3 primary tumor = experiment: PC-3 implanted nude mice, inhibitor treatment; assay type: in vivo; settings: treated seven weeks, compared to PBS-treated mice after four weeks
From the text: Another well characterized model that is derived from human prostate cancer epithelial cells is the PC-3 cell line (Kaighn et al. (1979) Invest. Urology 17: 16–23). The PC-3 cell line expresses uPA as assayed by enzyme-linked immunosorbent assay (ELISA) and by Northern blotting of PC-3 mRNA (Yoshida et al. (1994) Cancer Res. 54: 3300–3304). […] Metastasis from the primary tumors similarly were similarly lower in the inhibitor-treated mice compared to PBS treated mice. Inhibition was not unexpected with ecotin M84R/M85R treatment, since uPA has been implicated in metastasis. […] Thus identification of the serine proteases expressed by PC-3 prostate cells may provide insight into the role of these proteases in cancer and prostate growth and development. In this example we have extended the strategy of using the polymerase chain reaction (PCR) with degenerate oligonucleotide primers that were designed using conserved sequence homology (Sakanari et al. (1989) Proc. Natl. Acad. Sci. USA 86: 4863–4867; Wiegand et al. (1993) Gene 136: 167–175, Kang et al. (1992) Gene 110: 181–187) to identify additional serine proteases made by cancer cells. […]

PC-3 cells = experiment: Subcutaneous coinjection of PC-3 cells with inhibitor; assay type: in vivo; settings: subcutaneous coinjection with PC-3 cells, compared to PC-3 cells and saline
tumor = experiment: Ecotin injected intraperitoneally, tumor growth; assay type: in vivo
uPA [2] = biological target: T2, uPA (Homo sapiens, UniProt P00749); settings: cited from earlier work
[3] = biological target: T3, His-MT-SP1 protease domain (Homo sapiens, UniProt Q9Y5Y6); experiment: Substrate kinetics of purified His-MT-SP1 protease domain; assay type: biochemical
T3 construct: made in house; host or cells: E. coli X-90 (pQE30 vector)
Method: The purified serine protease domain was titrated with 4-methylumbelliferyl p-guanidinobenzoate (MUGB) to obtain an accurate concentration of enzyme active sites^(iii). Enzyme activity was monitored at 25° C. in assay buffer containing 50 mM Tris pH 8.8, 50 mM NaCl, and 0.01% Tween 20. The final concentration of substrate Spectrozyme tPA ranged from 1 μM–400 μM. Enzyme concentrations ranged from 40 pM–800 pM. Active site titrations were performed on a Fluoromax-2 spectrofluorimeter. Measurements were plotted using the KaleidaGraph program (Synergy, Reading, Pa.), and the Km, kcat, and kcat/Km for Spectrozyme tPA was determined using the Michaelis-Menten equation.

uPA [4] = biological target: T2, uPA; experiment: Inhibition of uPA; assay type: biochemical

T3 sequence (Q9Y5Y6 615-855 limits assumed, other chains not shown): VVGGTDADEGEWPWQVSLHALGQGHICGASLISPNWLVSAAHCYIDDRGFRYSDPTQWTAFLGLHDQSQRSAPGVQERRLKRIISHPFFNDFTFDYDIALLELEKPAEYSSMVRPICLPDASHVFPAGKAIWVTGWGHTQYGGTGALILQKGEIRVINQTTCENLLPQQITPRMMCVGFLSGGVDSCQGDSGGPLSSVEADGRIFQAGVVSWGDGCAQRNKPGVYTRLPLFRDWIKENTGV
T1 sequence (Q9Y5Y6 615-855 limits assumed, other chains not shown): as above

| Molecule | inhibition of MT-SP1, in words [1] | apoptosis in rat ventral prostate model (explanted rat VP) | ductal branching morphogenesis and differentiation of rat ventral prostate (explanted rat VP) | primary tumor size (PC-3 primary tumor) | primary tumor size (PC-3 cells) | tumor growth (tumor) | inhibition of uPA, in words (uPA [2]) | inhibitor potency against uPA (uPA [2]) | hydrolysis of pNA substrate by the MT-SP1 protease domain [3] | kcat [3] | Km ([3]; 25° C., 50 mM Tris pH 8.8, 50 mM NaCl, 0.01% Tween 20) | kcat ([3]; 25° C., pH 8.8) | fold more potent inhibitor of uPA compared to ecotin (uPA [4]) |
| --- | --- | --- | --- | --- | --- | --- | --- | --- | --- | --- | --- | --- | --- |
| ecotin: Macromolecular inhibitor of serine proteases of the chymotrypsin fold, purified from E. coli | potent, subnanomolar inhibitors | enhances | inhibits | significantly smaller | decrease | inhibited | poor, micromolar inhibitor | 2800 nM |  |  |  |  |  |
| NC(N)=NCCC[C@H](N)C(=O)Nc1ccc([N+](=O)[O-])cc1 [H-Arg-pNA, arginyl-pNA] |  |  |  |  |  |  |  |  | does not cleave |  |  |  |  |
| hexahydrotyrosyl-Gly-Arg-pNA [Spectrozyme tPA] |  |  |  |  |  |  |  |  |  | 260 s⁻¹ | 31.4 ± 4.2 µM | 2.6×10^2±6.5 s^−1 |  |
| B1 | potent, subnanomolar inhibitors | enhances | inhibits | significantly smaller | decrease |  |  | 1 nM |  |  |  |  | 2800 fold |

Reference: patent publication US7227009B2, “MT-SP1 polynucleotides and polypeptides” (Catalyst Biosciences, Inc., priority 1999, dated 2007)
